# Literature values as cited in article PMC11379947 (Nature Communications, 2024).
# T1: ICOS (Homo sapiens, UniProt Q9Y6W8)
# T1 sequence (Q9Y6W8 21-199): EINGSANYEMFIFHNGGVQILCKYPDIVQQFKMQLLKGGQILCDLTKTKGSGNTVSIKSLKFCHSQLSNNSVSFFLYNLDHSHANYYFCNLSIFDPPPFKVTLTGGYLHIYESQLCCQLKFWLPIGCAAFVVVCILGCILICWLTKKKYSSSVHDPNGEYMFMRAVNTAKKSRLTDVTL
# Biological target: T1, ICOS
# Conditions: read-out: KD of natural ICOS ligand; cited from earlier work
molecule,measurement,value
"ICOSL: the natural ICOS ligand (protein, UniProt O75144 19-302, looked up) ICOS ligand: DTQEKEVRAMVGSDVELSCACPEGSRFDLNDVYVYWQTSESKTVVTYHIPQNSSLENVDSRYRNRALMSPAGMLRGDFSLRLFNVTPQDEQKFHCLVLSQSLGFQEVLSVEVTLHVAANFSVPVVSAPHSPSQDELTFTCTSINGYPRPNVYWINKTDNSLLDQALQNDTVFLNMRGLYDVVSVLRIARTPSVNIGCCIENVLLQQNLTVGSQTGNDIGERDKITENPVSTGEKNAATWSILAVLCLLVVVAVAIGWVCRDRCLQHSYAGAWAVSPETELTGHV",Kd,722 nM
